Assay: soluble on expression in E. coli; label from the status in PepcDB or PDB records

| Sequence | soluble on expression in E. coli |
| --- | --- |
| MAHHHHHHMMSTYMTRYDYDYNRDPSLTGSDGGSGGGFEQEISGEVRNRPIFAYGVDTGDRDDRTIYQVDYTHKDRSVKNMAGLAATLKGSAASAAAARMRGQDNGTAYQHNWYLPAASAHVVLVDGSHPHTVYQDDYQAPRHVAGGAVHDPVCYAGAAAAAYNADLLKPHGVMEDDGADLAPKITSKESLLPRKHASPNATWTPVFENTADHRHTWNDCVPGDGVVGTYVCTSWDYGDTSQAHPLQLPLSLARSLAAHNLDASANPDKAALLRHLAGKNYSSRTLRGSSSGAPLDTNDRTNPQFLSTVEQKRCAVSRRLEKEHYVTMSIYKSDFIDQGLLPELPGNPGGPADVRDTHTSPLATAGEMMAGQLTTATRELGLLRNAHGTLKSGEAHAASRVSTGVLSAMRAMEKAASIDKADPHCHKLCE | not soluble |
| MAHHHHHHMNASGATASEGKNPPRDARTVSFHPESTFHEQHNAASQRFSHTSEPGWESRESNSGYAAQDGGDTANEGIRRSYYKRLYRFYRKYNPQKLCNVEKLLRECRGEEEQLFAILVGKYGPEPEEESSMLSGDCVFSSAGDSVMHYSGKRCQFPKKVKPEEGNTDCETPYWAGASSLIGDRDLLSLLQNLETPNVELQKCYMGVFAEHPTDCWNGMAYITRAEGIAPANTKFLGHTWVGTLGSGKVLVHEGKKFHRTTLYCTEECQKRGNHERWRLSVYRGEVSYLILLRTVWDPVVVPEPLPLNRSNLSEREVHSSLDGFPTRLSSMSSADSGGSGSRQPIQPPQPQQHTVTPAFVQFTKLLEELESRIIERLEGLERRMSRLENM | not soluble |
| MAHHHHHHMNCKNMDTSYEIINYLTKDELDIDLSCMDKKERYKIWKRLPKCELHCHLDVCFSVDFFLNVIRKYNIQPNMSDEEIIDYYLFSKPGKSLDEFVEKALRLTDIYIDYTVVEDLAKHAVFNKYKEGVVLMEFRYSPSFMSFKHNLDKDLIHEAIVKGLNEAVALLEYKIQVGLLCTGDGGLSHERMKEAAEFCIKHKKDFVGYDHAGHEVDLKPFKDIFDNIREEGISLSVHAGEDVSIPNLNSLYTAINLLHVKRIGHGIRVSESQELIDLVKEKDILLEVCPISNVLLNNVKSMDTHPIRMLYDAGVKVSVNSDDPGMFLTNITDNYEELYTHLNFTLADFMKMNLWAVQKSFVDPDIKNKIISKYF | soluble |
| MAHHHHHHMNCSSTLACHAVVSAPSTASLITSCWTPQQHCYRQLMKSLRAAYFHDRSKLFWSRHRVLVEFYKYSEEANEEAVKQLVAIGLEVAAFIDHHMRTDVERIVKHNETMMALPVAQAKKFRSDYLLAEKQHDSWCKQKIKNIMKRRPPPPYPFF | not soluble |
| MAHHHHHHMNDDNTLALLYEGINLIFDKWTILRLAVTNNWGGINSEDKKKKLIEYVHNFVTNNNAKNKLCDYLRDEMSVLFNVDIEDHSDIEIADLILDLYQNLKKKNYDILEKIKNIQIYDISCSQEKNLIQNYEQGDEENMEDEYSSSNYSEYSNEESLDKE | soluble |
| MAHHHHHHMNERTSGGAMSTIQFGGTMTTTLSQAKNMDFSNDSPRRRRNRHNVILFPNHRDRLACDPLNFFCVYATYEYRWSDTTLEAERNIFALVDSMVAAVRKAFDDAFERWKNMPAFVQHAHTLRSAVSFSSALSTNTLLHMYSHADNVARHTTLRKTLGSMLPSLPAANPRQEMNICSASSAGRSTFSKGALPRAAHRERREEEEEAVMKNLAKQWIPPHNGPKCRLVLDIVASRKTLGDDPVISDPYRLGQKVFSFTRRNYLREVINTFVGISDSGVTLVGRDILYPFRSTGGGSPKPSVKMNSLSGNRRNLSGSAISGLPIDSGDILGVAASGGVAAKVSGFEQILANTIPVPRMVPVPPTNTEKVDNIRLLVCFPPNDISGSVA | soluble |
| MAHHHHHHMNFLNDEILKKSCEIEKLQDRLLDYESKLLIYENNNEIKILKKNEDHLRKLLSKHIHRNEQLLNTTFLLQKSTLENNSLEKKIIELRAKSYRKDQEIKKLQETKSIRKSPSSNCSHNSQEYSMDLIDDLNEDNYNLKYYHNNSIVGDQENSVYTSKKSYDKNITIGSLADTEKRSIKIKNIIPHSHNNEDPVHFALCEYLNCFKKNNLSIKINKLDDNTYLLNDKKVVISFINGDLYVEDDASPIKLQDYLLKTVVR | soluble |
| MAHHHHHHMNIVTSYFLVRKLPGTLAMGGDVLEHQNARQREYMECLRLNQQHPGVASIHLIVEGADAYEHLLKHVLCNPHFQNASTLTTSTAPASARHRRRHAAPIVPVVRFASGMPLYADFFAYANQLLSHRLTMVCNADVYLSPEHFSLSAVEDLFRQSSTLPPPHAAPCGSCQPSTADLAEREAMRPKSAPKRANPLALALTRYESDSPLDAPFLFDYRGSHDAFVLVPPVPPSFVRSVAHPQNCYKAENIVLHELQQSGYLTLNPTLGDGVRLVHRHATDLRQWFPPVDESRYGRAQPNTLAQAASRIREEARVRSLPPSV | not soluble |
| MAHHHHHHMNLDEFNELVEQRNRIEREIQENVNFLEAPENKGVGLHGKLVDEEGFPRNDIDIYSIRVARNKVICLKNDYLNVSKRIEEYLHKVHTSHPVIRVQRSKAKKEEGDDPNESPPESCTQDYDESAPGYELLIEEAKRSTFAMIDELVENSPSHKAGLRINDYIIQFGDVQKKKKKNEENEKEDADIFNRIAAYMRNNPTRIKVKILREGKIFFYFVFPNRTPNGLYIGCHLTPISVGGGSV | not soluble |
| MAHHHHHHMNSSTVSEDIALAGIKKEVLRSLPFWKSFVELREAYHRRPRVFSCDVSIKSRKACSHFVGFDVLWVQSEVVLVSWRRPSKRNRANDFPPEFVEVHLTFGSMHFVHQNVHLVGDHCSYSLQSVVLLQRPEQLQCVAGNMVHFAFLVYGMLHISQRDGFLTDPRAILPPPNSAVMLLGMGGNSMERGIRYILGEDAHIYIAEIEPAVVSTCRFAGLLKENANTHVCLDSAERTIQKCPEKCTFIFMDLFEPLSGNMVNTMPLIRQAFDILAPNGILLINEHSIPTVEHLLPLLHLFGDHNVQFVNVRGWNESIIAATKPGGNADGLGRKCSKRLATDVLNDFDHTFPGWMPDKNYILRSQILYAKPLTLKLRARQWTS | not soluble |
| MAHHHHHHMNVVDFTWSRIRLFDHLAVILIYEELLKNPLCKITNVYESETRKYKPYPLNTLQMTKLVSIYFKISSKECMMLAEKLYNKGYISYPRTETNYFPDSMNLHKIINELRKNDNFGWYANKLCEEHKYQKPRKGKMNDKAHPPIHPVKNMNKSLKVEEKEWKLYEFICKHFLAVCSNDAIGYNTKVTAKIQEEQFFCKGLKIKEKNYLEIYTYEKWNDKIIPSFQVDDEFYPTSLLIEEGITQPPKYLSESNLLTLMDKFSIGTDATMHEHIENIQKRNYVIKNSKSLFIPTNLGIALVQSYKKFKDIGIDLTDPSLRAKMEKDMSLVASGVKQKNEIIRNYIDIMKYIYQEIYNRIDVLDKNIHYYLNNPDQLSYT | not soluble |
| MAHHHHHHMPPQQPVGIMDNEEEFPVEEPPPMDPLIKLLHLRHTYTSQYVDEAVREEVKAAMLKIAHEHNMAPYLRFASEMFCWTVDEEQLRAMDAINATKLEELDARIKDAQENLGDVEVRDGLLARCHHFARIGDMEECLKFNNECSGKTLAAGSKLDLCFQRILLGLAFSDNEVAANGICSAHRLMKEGDWERRNRLKVYEGLFYVYIRDFKKGSELLLDSISTFAASELMDFNEFILVTVVASLPVLSRSQLKKCILDSPEVHSANIKNVFHLVTAIYECRYKEVFPTLDAVCQQLRGIVYLSQHVNYFFREVRVLVFKQFLDSYSSVTLKSMSNAFGIPSPVLDSMLGTLISNERIACKMDRVSDSITTYRGDTTNLDYHRIVKNGDLLLNRIQKLSRLAEV | not soluble |
| MAHHHHHHMPSMSASRQAPKVSATARATKFSTIRKLPTAEHSTSPVAAAPTSSEEPSRLALISFDVDATIDTVNLLHEEQHRVSEEDATDKRIGRYHYAQLVARLNEQRSLYQSTAMFVETMLKEVNHSTEASVAMKASAATWGLKLLAKHAGHGAINAVLESLLPALYCEYNPKKLCSAPPAVQLQVRRPDVIMDNPYFTHSMFVDEVQVDKRSATKLQKSLEAALRANDQRRSIVCHLIERRRQQQLEVTFRCWRHHVRQQHLLRMMGDNTAKQRAEEMSRLRVQTVFYHWKLLVERSRSTYLTERLHEAAFQLENAKNQFQLQCYRADRLVKTAKEATEEMERVSQINKGLQRQVDELKEEQVRKEREYKEKLTRNVTQVLKLLETYDSLARVLLHSKQADEYVMPEKPLLARHSQSGDGGQEASENEASRLR | not soluble |
| MAHHHHHHMPTVSSSTPSPASTPTVGVPPGKVWLNADEPNDEYSLFCTEAIPPKVPGTVRIWVDGCFDMLHFGHANALRRARRLGDELFVGCHSDEEVMRFKGPPIMHAEERYEALRACKWVDHVVENYPYCTRLKDIERFEIDYVVHGDDISVDLNGRNSYQEIIDAGKFKVVKRTKGISTTDLVGRMLLCTKNHMLKSVDEVQLENSLLEHSPTMPCLTTSRKIVQFSNNSSPKPGDRIVYVDGSFDLFHIGHIRVLQKARELGDYVIAGVYEDQVVNEHKGKNYPIMSFNERVLGVLSCRYVDEVVMGVPFDVSKDVIDGLHINVVVGDKFSDLVVEEGGSTRYEVPKAMGIYHEVDSGCILSTDSLIDRVVENRLDFLKRQAEKRIKDTKSQEIKPDEYRKLREAS | not soluble |
| MAHHHHHHMPVIKEYINPAGLRLDGRRPNEPRRLALEFGKISGCDGCCTVVSGLSHVCATVYGPREVSNRLEGKYNEVTITCDVVVAAFAGERRREQQRYSRLSEDISASVLDVARSVVLLSQYPNSQIHICIEVLKQDGSDKAACINAACLALIDASIAMKDVVYTQTVGLIEGFDVVDLTTEEIHSQCPSICITVQGHDPTNIVWMESNSRLAPEVITRLVKVAQKASTDVFETALRGPLEEHAATVLRLQANLGNIE | soluble |
| MAHHHHHHMQAAAPGQTLSSALRFWADVSYGDAPPAALIDYPPLGFEEDSSRLTVGALQASRDAAAADSRRQLGLKTQRASEDVDGSAHPALLLGVKEESSTLAVTREELEGEEGPAWLQPPLLLQLDDGLEDRQFAAATTTGRTAPVPHLRYDGAGLLAVMHVHSSGIAYVGYPRASDTVSSAEPTDGLVRLPDNVPPADPLAVAAPTPAPICSLPMSSSTGFVRGLLGLS | not soluble |
| MAHHHHHHMQFVSDLGLELSVFVCHLYAKYSEEPLKAFHELVLRTRSSCCGSDDSSNYLSLATLSGTQWYQDMTKRYASLRQRLRGERDNDVQEAREVTLSLYPQGCRVSEYADAIVTSAAMLTSNIPSTVLERFASCRVKDLNEKGCVSISADELASDLIERPVLDSFTPSRWWESDKTAPSSSLKDGLVAVKSIGLRVQPVEILIFYTYNGRPRRRFIPLDGLLHENSPIAPLLRRLVRSHGMLVSESQLRSYLQRLQELMRKSVESHASTVKPEGPLQPQFDWKQQIGYSDNAPAAHNTGEEEQHMTSAKTGEPEVNKADVGLLYRDPEAALKNVDLNDADDITLQEFKAKMNEGFMQNALRPGDPGYVYDKRLDVNPTERSEWDDSD | not soluble |
| MAHHHHHHMQFVVVDGSWPVVPCAIPRSQLLARSVKDTDHGEDGGGQSVLPGHALFTLCQEVLDTSASKTKAPPELATLDMTFLRDPQSGPLGALRLYTFKSVSHQFFAVEDLVSSGCLIVFTSHWASLTSAALLTGVRTTHKEKDDSAKSSRRRIENNTGSGTREVSASRASSLMGRGRSVLQKFSRAETYFTSVASATQRDFEMVNELLLSGTIRMNAHLESFLCSVCGNLPRRTMTTSCCGAVVCLLCAPTLSSSSVLREEVVCAVCGEMPLTNPEAHVSRDAEVMRLVRELRVLYHPQVSAAACRAMPGETQPPPTPFNVHHAGLPVPICDMNEPTGSVLGSVFMGPS | not soluble |
| MAHHHHHHMQPKMTAPLTMKDNNKCLSVRVGSTLEIHLEGNPTTGYTWTRVGFVGKEMLSDEHLEVTSKYTPKPVSGSMVGAGGSYTVFVKPLRKGQHAVQLVYARPFEGPKPDNERYTLHLNVE | soluble |

Reference: the DeepSol protein solubility set
